Source: the nanobody polyreactivity screen of Harvey et al. (2022)

test: yeast display, Sf9 membrane polyspecificity reagent, FACS + sequencing; frameworks hold sequencing errors
Method in brief: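 Nanobodies came from a synthetic yeast display library in Saccharomyces cerevisiae BJ5465, induced with galactose for 36–48 hours and stained for 1 hour at 4 °C with 10% biotinylated, detergent-solubilized Sf9 membrane reagent. Cells were enriched on streptavidin microbeads and then FACS-sorted, with low and high (top ~1%) gates set on anti-HA fluorescence for expression and streptavidin fluorescence for reagent binding. Each polyreactivity label reflects the gate a clone came from. Genes were amplified by colony PCR, sequenced by MiSeq 2 × 250 and filtered by CDR length.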

Row | Sequence | polyreactivity (PSR sort gate)
1 | QVQLVESGGGLVQAGGSLRLSCAASGSNILQNAMGWYRQAPGKERELVAAITNGGSTNYADSVKGRFTISRDNAKNTVYLQMNSLKPDDTAVYYCAAYPLYTGSYDRGGYWGQGTQVTVSS | low polyreactivity
2 | QVQLVESGGGLVQAGGSLRLSCAASGSNISQNAMGWYRQAPGKERELVASITYSGGSTYYADSVKGRFTISRDNAKNTVYLQMNSLKPEVTAVYYCAADVRYSSRFYYWGQGTQVTVSS | high polyreactivity
3 | QVQLVESGGGLVQAGGSLRLSCAASGSNIYTYAMGWYRHAPGKERELVAAISSGGSTTYADSVKGRFTISRDNAKNTVYLEMISLKPEDTAVYYCAADGASRALYDYWGQGTQVTVSS | high polyreactivity
4 | QVQLVESGGGLVQAGGSLRLSCAASGSNLATYTMGWYRQEPGKERELVAAISFGGSTYYADSVKGRFTISRDNAKNTDYLQMNSLKPEDTAVYYCAVYGDSYWGAYYYSDGYWGQGTQVTVSS | low polyreactivity
5 | QVQLVESGGGLVQAGGSLRLSCAASGSNLGLYAMGWYRQAPGKERELVAAISSGGSTYYADSVKGRFTISRDNAKNTVYLQMNSLKPEDTAVYYCAADLSLSRVVFGDYDYWGQGTQVTVSS | low polyreactivity
6 | QVQLVESGGGLVQAGGSLRLSCAASGSNSRYAMGWYRHARGKERELVRAITRSGGSTHYADSVKGRFTISRDNAMNTVYLQMNSLKPEDTAVYYCATRYYRGVIRYPYDSWGQGTQVTLSS | high polyreactivity
7 | QVQLVESGGGLVQAGGSLRLSCAASGSNVYYAMGWYRQAPVKERELVAAINTSGGSTYYADSVKGRFTISRDNAKNTVYLQMNSLKPEDTAVYYCAAVYVGYITGFKRGYWGQGTQVTVSS | high polyreactivity
8 | QVQLVESGGGLVQAGGSLRLSCAASGSNWSYAMGWYSQAPGKESVLVATISRRGGSTYYADSVKGRFTISRDNAKNTVYLQMNSLKPEDTAVYYCAAAESASSFRFDYWGQGTQETVSS | high polyreactivity
9 | QVQLVESGGGLVQAGGSLRLSCAASGSNYYWYAMVWSRQAPGKEMELVADITTSDGRTYYADSVKGRFTISRDNAKNTVYFLMNSLKPEDTAVYYCAADPFSGYGFQYYRGLYYWGQGTQVSVSS | low polyreactivity
10 | QVQLVESGGGLVQAGGSLRLSCAASGSPFRPYVMGWSRQAPGKERELVAAISWRGGTTYYADSVKGRFTISRDNAKNTDYLQIHSLKPEDTAVYYCAARGDQGVPVARRYDYWGQGTQVTVSS | high polyreactivity
11 | QVQLVESGGGLVQAGGSLRLSCAASGSPFRSYAMGWYRQAPGKERELVAAISISGGRTYYADSVKGRFTISRDNAKNTVYLQMNSLKPEDTAVYYCAADRRTDGHDYWGQGTQVTVSS | high polyreactivity
12 | QVQLVESGGGLVQAGGSLRLSCAASGSSFNYNTMGWYRQAPGKERELVADISWSGGSTYYADSVKGRFTISRDNAKNTVYLQMNSLKPEDTAVYYCAADFGLFPYVGTGYYYWGQGTQVTVSS | low polyreactivity
13 | QVQLVESGGGLVQAGGSLRLSCAASGSSFTNYGMGWYRQAPGKERELVAAISESGDTTYYADSVKGRFTISRDNAKNTVYLQMNSLKPEDTAVYYCNRAHGRSRYSRDYDSWGQGTQVTVSS | low polyreactivity
14 | QVQLVESGGGLVQAGGSLRLSCAASGSSFYTNAMGWYTQAPGKERELVAAISSSGDSTYYADSVKGRFTISRDNANNTVYLQMNSLKPEDTGVYYCNADRRSYNGFRYYYWGQGTQVTVSS | low polyreactivity
15 | QVQLVESGGGLVQAGGSLRLSCAASGSSFYVNAMGWYRQAPGKEREFVAAITWNSGSTYYADSVKGRFTISRDNEKNTVYLQMNSLKPEDTAVYYCAAVLSGRVYGYDYWGQGTQVTVSS | low polyreactivity
16 | QVQLVESGGGLVQAGGSLRLSCAASGSSLGLNAMGWYRQAPGKERELVAGISWRGGSTYYADSVKGRFTISRDNAKNTVYLQMNSLKPEDTAVYYCNAVRFYGRWRGYDYWGQGTQVTVSS | high polyreactivity
17 | QVQLVESGGGLVQAGGSLRLSCAASGSSRIYDMGWYRQAPGKERVWVAAISSTGSTYYADSEKGRYTISRDNAKNTGYLQMNSLKPEETADYYCAAARYYRYDSYSSWGQGTQVTVSS | high polyreactivity
18 | QVQLVESGGGLVQAGGSLRLSCAASGSTCDRYAMGWYRQAPGKERELVAAITDTGGSTYYADSVKGRFTISRDNAKNTVYLQMNSLKPEDTAVFYCAKGYFWSSYVSSRYGSWGQGTQVTVSS | high polyreactivity
19 | QVQLVESGGGLVQAGGSLRLSCAASGSTCRPYVMGWFRQAPGKERELVAAISWRGGTTYYADSVKGRFTISRDNAKNTVSLQMNSLKPEDTAVYYCAARGDQGVPVARRYDYWGQGSQVTVSS | high polyreactivity
20 | QVQLVESGGGLVQAGGSLRLSCAASGSTCYKYAMGWYRKAPGKERELVAVITKSGGSTYYADSVKGRFTISRDNAKNPVYLQMNSLTPEDTAVYYCGTVQSGRVRTYDYCGQGTQVTVSS | high polyreactivity
21 | QVQLVESGGGLVQAGGSLRLSCAASGSTFAANAMGWYRQAPGKERELVAAITGSGGGTYYADSVKGRFTISRDNAKNTVYLQMNSLKPEDTAVYYCNTYYYWQYDWGQGTQVTVSS | high polyreactivity
22 | QVQLVESGGGLVQAGGSLRLSCAASGSTFAANAMGWYRQAPGKERELVAGISESGDRTYADSVKGRFTISRDNPKNTVYLQMNSLKPEDTAVYYCNVGANVYLLYFPSRGGVYDYGYWGQGTQVTVSS | low polyreactivity

Row | Sequence | polyreactivity (PSR sort gate)
23 | QVQLVESGGGLVQAGGSLRLSCAASGSTFAANPMGWYRQAPGKERELVAAITSSGGSTYYADSVKGRFTISRDNAKNTVYLQMNSLKPEDTEVYYCNKDIERYVRIYDSWGQGTQVTVSS | low polyreactivity
24 | QVQLVESGGGLVQAGGSLRLSCAASGSTFAASVMGWYRQAPVKERELVAAISTSGGGTYYADSVKGRFTISRDNAKNTVYLQMNSLIPEDTAVYYCAADYGSGSVSYDYWGQGTQVTVSS | low polyreactivity
25 | QVQLVESGGGLVQAGGSLRLSCAASGSTFAAYVMGWYRQAPGKERELVAAISTSGGRTYYADSVKGRFTISRDNAMNTVYLQMNSLIPEDTAVYYCAKKRINSRKYDYWGQGTQVNVSS | low polyreactivity
26 | QVQLVESGGGLVQAGGSLRLSCAASGSTFAEYAMGWYRQAPGKERELVAAIRWSGGSTSYADSVKGRFTISRDNAKNTVYLQMNSLKPEDTAVYYCAAERFWYDGEVKLYVLSYYWGQGTQVTVSS | low polyreactivity
27 | QVQLVESGGGLVQAGGSLRLSCAASGSTFAFYAMGWYRQAPGKEREFVAAITWDGGTTYYADSVKGRFTISLDNAKNTVYLQMNSLKPEDTAVYYCATQYLSYLYAGRYDYWGQGTQVTVSS | low polyreactivity
28 | QVQLVESGGGLVQAGGSLRLSCAASGSTFAFYAMGWYRQAPGTERELVAAIRSGGSTNYADSVKGRFTISRDNAKNTVYLQMNSLKPEDTAVYYCAARESDPGSHSVYREDDYWGQGTQVTVSS | low polyreactivity
29 | QVQLVESGGGLVQAGGSLRLSCAASGSTFAGNAMGWYIQAPGKERELVAAISSSGAGTYYADSVKGRFTISRDNAKNTVYLLINSLKPADTAVYYCNVGSRALRRRVRSVSFDYWGQGTQVSVSS | low polyreactivity
30 | QVQLVESGGGLVQAGGSLRLSCAASGSTFAGNAMGWYRQAPGKERELVAAITWSGGNTNYADSVKGRFTISRDNAKNTVYLQMNSLKPEDTAVYYCASDFSGSLAYDYWGQGTQVTVSS | low polyreactivity
31 | QVQLVESGGGLVQAGGSLRLSCAASGSTFAGNEMGWYRQAPGKERELVAAITFSGGRTDYADSVKGRFTISRDNAKNTVYFQINCLKPEDTAVYDCAAPADDTVHYQNYYWGQGTQVSVSS | low polyreactivity
32 | QVQLVESGGGLVQAGGSLRLSCAASGSTFAGNGMGWYRQAPGKEGELVAGIDVTGGSTYYADSVKGRFTISRDNAKKTVDLQMNSLKPEDTAVYYCYARYVYHSSFAGFDYWGQGTQVTVSS | low polyreactivity
33 | QVQLVESGGGLVQAGGSLRLSCAASGSTFAGYAMGWYIQAPGKERELVASIRSGGSTNYADSVKGRFSISRDNAKNTVYLQMNSLKPEDTAVYYCAARPDQKRYDYWGQGTQVTVSS | low polyreactivity
34 | QVQLVESGGGLVQAGGSLRLSCAASGSTFAGYAMGWYRQAPGKERELVATITYSGGTTYYADSVKGRFTISRDTAKNTVFLQMKSLKPEDTAVYYCDNKASYWWGFEYWGQGTQVTVSS | low polyreactivity
35 | QVQLVESGGGLVQAGGSLRLSCAASGSTFAGYAMGWYRQEPGKERELVAAISGSGGTTYYADSVKGRFTISRDNAKNTVYLQMNSLKPEDNAVYYCAALRGRYYGGLGDYWGQGTQVTVSS | high polyreactivity
36 | QVQLVESGGGLVQAGGSLRLSCAASGSTFAGYAMGWYRQPPGKERELVAAISYSGGTTYYADSVKGRFTISRDNAKNTVYLQMNSLKPEDTAVYYCAARKKFKTPSYDMYYWGQGTQVTVSS | high polyreactivity
37 | QVQLVESGGGLVQAGGSLRLSCAASGSTFAINAMGWYRQAPGTERELVAAIRYSTGRTYYADSVKGRFTISRDNAKNTVYLQMNSLKPEDTAVYYCAALGFTKYGSRFDYWGQGTQVTVSS | high polyreactivity
38 | QVQLVESGGGLVQAGGSLRLSCAASGSTFAIYAMGWYRQAPAKERELVAAITRGSTSYADSVKGRFTISRDNAKNTVYLQMNSLKPEDTAVYDCAADSSRYGVIRDFDYWGQGTQVTVSS | high polyreactivity
39 | QVQLVESGGGLVQAGGSLRLSCAASGSTFAIYAMGWYRQAPGKERELVAAITGRSGSTYYADSVKGRFTISRDNAKNTVYLQMNSLKPEDTAVYYCAAQGGYRRTPYIHRDYWGQGTQVTVSS | high polyreactivity
40 | QVQLVESGGGLVQAGGSLRLSCAASGSTFAIYAMGWYRQAPGKERELVAAITRGSTSYADSVKGRFTISRDNAKNTVYLQMNCLKPEDTAVYYCAAEYFLAQVYIYGYWGQGTQVTVSS | high polyreactivity
41 | QVQLVESGGGLVQAGGSLRLSCAASGSTFAIYGMGWYRQAPGKERELVAGITRGGSTNYADSVKGRFTISRDNAKNTVYLQMNSLKPEDTAVYYCNKVQRSTYYNGYDYWGQGTQVTVSS | high polyreactivity
42 | QVQLVESGGGLVQAGGSLRLSCAASGSTFAKYAMGWYRQAPGKERELVASIRLSGGSTYYADSVKGRFTISRDNAKNTVYLQMNSLKPEETAVYYCNKQFATFYYCFDYYYWGQGTQVTVSS | low polyreactivity
43 | QVQLVESGGGLVQAGGSLRLSCAASGSTFAKYVMGWYRQAPGKERELVAAISRRGSSTYYADSVKGRFTISRDNAKNTVYLQMNSLKPEDTAVYYCAARFRYSGFEGMDYWGQGTQVTVSS | high polyreactivity
